Residue numbers refer to the chain shown, from its start.
B1: 75110_06C16A (antibody, V domains shown)
VH: QVQLQESGPGLVTPSETLSLSCTVSGGSISDYYWSWIRQPGGKGLEWIGRIYSSGSTNYNPSLKSRVTMSVDTSKNQFSLKLSSVTAADTAVYFCARDREDYYYYGMDVWGQGTTVTVSS
VL: DIQMTQSPSSLSASVGDRVTITCQASHDISNYLNWYQQKPGKAPKLLIYAASNLETGVPSRFSGSGSGTDFSFTISSLQPEDIATYYCQQYDHLPLTFGGGTKVEIK
notes: Tested as antibody purified from AlivaMab Mouse Kappa hybridoma (human V regions, kappa light chain, mouse Fc captured by anti-mouse Fc sensors)
B2: 75110_06G04A (antibody, V domains shown)
VH: QVQLLESGPGLVKPSETLSLTCTVSGGSISSYYWSWIRQPAGKGLEWIGRIYISGSTNYNPSLKSRVTMSIDTSENQFSLNLSSVTAADTAVYYCARELERPYYYGMDVWGQGTTVTVSS
VL: B1 VL with H27Q, A50N, N53T, S72T, H93N, I106F
notes: as for B1
B3: 75110_06K03A (antibody, V domains shown)
VH: B2 VH with L5Q, S31T, Y52N, I53T, N58T, I71V, E75K, N81K, P102Y
VL: B1 VL with H27Q, A50Y, N53I, S72T, H93S
notes: as for B1
B4: 75110_08D24A (antibody, V domains shown)
VH: B1 VH with T13K, S21T, D31G, Y32F, G41A, S53T, G55E, S56N, F94Y, D101G
VL: B1 VL with H27Q, S72T, H93S, L96I, G100Q, K103R, V104L
notes: as for B1
B5: 75110_08M20A (antibody, V domains shown)
VH: B1 VH with G8D, T13K, S21T, D31S, G41A, S53A, F94Y, D101G
VL: B1 VL with H27Q, N31K, K45N, S72T, T85A, H93S, L96I, G100Q, K103R, V104L
notes: as for B1
B6: 75110_06E14A (antibody, V domains shown)
VH: B1 VH with T13K, S21T, D31N, Y33F, G41A, S56N, F94Y
VL: B1 VL with H27Q, A50G, N53I, S63T, S72T, H93S, L96I, G100Q, K103R, V104L
notes: as for B1
B7: 75110_06D16A (antibody, V domains shown)
VH: QVQLQQWGAGLLKPSETLSLTCAVYGGSFSGYYWSWIRQPPGKGLEWIGEINHSGSTNYNPSLKSRVTISVVTSKNQFSLKLSSVTAADTAVYYCARVLNWFDPWGQGTLVTVSS
VL: DIQMTQSPSSVSASVGDRVTITCRASQDIADWLAWYQQKPGKAPKLLIYAASSFQSGVPSRFSGSGSGTDFTLTISSLQPEDFATYFCQQANSFPYTFGQGTKLEIK
notes: as for B1
B8: 75110_07B16A (antibody, V domains shown)
VH: B7 VH with P40S, H53Q, V72D, N76D, L99I, P104S, T109S
VL: B7 VL with D28G, A30S, D31S, A50D, P80T, E81D, F87Y
notes: as for B1
B9: 75110_07J02A (antibody, V domains shown)
VH: EVQLVESGGGLVQPGGSLRLSCAASGFTFSSYWMSWVRQAPGKGLEWVANIKEDGSEKYYVDSVKGRFTISRDNAKNSLYLQMNSLRAEDTAVYYCARDGSYSGYGMDVWGQGTTVTVSS
VL: AIQMTQSPSSLSASVGDRVTITCRASQGIRNDLGWYQQKPGKAPKLLIYAASSLQSGVPSRFSGRGSGTDFALTISSLQPEDFATYYCLLDYNYPYTFGQGTRLEIK
notes: Tested as antibody purified from AlivaMab Mouse Kappa hybridoma (human V regions, kappa light chain, mouse Fc captured by anti-mouse Fc sensors); also called 75110_07102A
B10: 75110_07J24A (antibody, V domains shown)
VH: QAQLQESGPGLVKPSETLSLTCTVSGGSISSYYYNWIRQPAGKGLEWIGRIYTSGRTDYNPSLKSRVTMSADTSKNQFSLKLSSVTAADTAVYYCARDEGPTDAFDIWGQGTMVTVSS
VL: DIVMTQTPLSLPVTPGEPASISCRSSQSLLDSDDGNTYLDWYLQKPGQSPHLLIYTLSYRASGVPDRFSGSGSGSDFTLKISRVEAEDVGVYYCMQRIEFPFTFGPGTKVDIK
notes: Tested as antibody purified from AlivaMab Mouse Kappa hybridoma (human V regions, kappa light chain, mouse Fc captured by anti-mouse Fc sensors); also called 75110_07124A
B11: 75110_05L07A (antibody, V domains shown)
VH: EVQLVESGGGLVQPGGSLRLSCAASGFTFSSYWMSWVRQAPGKGLEWVANINQDGSDKYYVDSVKGRFTISRDNVKNSLYLQINSLRAEDTAVYYCAREGGQWLTLDYWGQGTLVTVSS
VL: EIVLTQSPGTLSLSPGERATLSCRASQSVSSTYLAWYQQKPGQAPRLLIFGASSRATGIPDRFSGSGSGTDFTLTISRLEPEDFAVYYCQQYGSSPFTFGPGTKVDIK
notes: as for B1
B12: 75110_11D03A (antibody, V domains shown)
VH: B11 VH with S56N, D57E, V75A, Y80F, I83M, T105A, T113A
VL: B7 VL with D28G, A30S, D31S, L46F, Y49S, A50G, F54L, F87Y, Y96W, L104V
notes: as for B1
B13: 75110_12H19A (antibody, V domains shown)
VH: EVQLVESGGGLVQPGGSLRLSCAASGFTFSSYWMSWVRQAPGQGLEWVANINEDGNEKYHVDSVKGRLTISRDNAKNSLYLQMNSLRGVDTAVYFCAREGGQWLALDYWGQGALVTVSS
VL: B7 VL with T20S, D28G, A30S, D31S, A50G, S53G, F54L, F87Y, Y96W, L104V
notes: as for B1
B14: 75110_09N20A (antibody, V domains shown)
VH: B11 VH with Q53E, D57E, V75A, I83M, A97V, T105A
VL: B7 VL with D28G, A30S, D31S, F54L, R61S, S76N, F87Y, Y96W, L104V, E105A
notes: as for B1
B15: 75110_12H17A (antibody, V domains shown)
VH: B13 VH with S31D, Q43K, N52K, H60Y, L68F, Y80F, G88A, V89E, F95Y
VL: DIQMTQSPSSVSASVGDRVTITCRASQGISSWLAWYQQKPGKAPKFLISGASSLQSGVPSRFTGSGSGTDFTLTISSLQPEDFATYYCQQANSFPWTFGQGTKVEIK
notes: as for B1
B16: 75110_07H07A (antibody, V domains shown)
VH: B11 VH with L4V, N52K, Q53E, D54E, D57E, V75A, I83M, A97V, T105A
VL: B15 VL with A13G, F46L, S49F, T63S, E105Q
notes: as for B1
B17: 75110_12C19A (antibody, V domains shown)
VH: B11 VH with N52K, Q53E, V75A, I83M, Y94H, A97V, T105A
VL: B15 VL with A13G, F46L, S49Y, T63S, A84V
notes: as for B1
B18: 75110_09G15A (antibody, V domains shown)
VH: B11 VH with S31D, D57E, Y60S, V75A, I83M, V93I, Y94F, T105A
VL: B15 VL with F46L, S49Y, T63S, S76N, A84T, S93I
notes: as for B1
B19: 75110_08H11A (antibody, V domains shown)
VH: EVQLVESGGGLVQPGGSLRLSCAASGFTFSSYDMHWVRQATGKGLEWVSTIGTAGDTYYPGSVKGRFTISRENAKNSLYLQMNSLRAGDTAVYYCARGGYSYYGMDVWGQGTTVTVSS
VL: EIVLTQSPGTLSLSPGERATLSCGASQSVSSTYLAWYQQKPGQAPRLLIYGASSRATGIPDRFSGSGSGTDFTLTISRLEPEDFAVYYCQQFGSSPFTFGPGTKVDIK
notes: Tested as antibody purified from AlivaMab Mouse Kappa hybridoma (human V regions, kappa light chain, mouse Fc captured by anti-mouse Fc sensors); also called 75110_08H1lA
B20: 75110_10N21A (antibody, V domains shown)
VH: B19 VH with A40V, S101Y
VL: B19 VL with G24R, V29F, S30I, T32S, E80D, F92S, S94N, I107V
notes: as for B1
B21: 75110_08K12A (antibody, V domains shown)
VH: B19 VH with K75E, V92L, G99D, S101Y
VL: B19 VL with G24R, S54N, S94T
notes: as for B1
B22: 75110_13C07A (antibody, V domains shown)
VH: B19 VH with G10V, S31N, I69L, N83H, G99A, S101G
VL: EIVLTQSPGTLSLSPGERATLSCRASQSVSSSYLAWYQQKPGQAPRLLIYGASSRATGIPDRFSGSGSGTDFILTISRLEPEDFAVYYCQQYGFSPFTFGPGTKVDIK
notes: as for B1
B23: 75110_10O16A (antibody, V domains shown)
VH: B19 VH with S31N, Y32S, Y100L, S101Y
VL: B19 VL with I2N, G24R, T32S, Q90H
notes: Tested as antibody purified from AlivaMab Mouse Kappa hybridoma (human V regions, kappa light chain, mouse Fc captured by anti-mouse Fc sensors); also called 75110_10016A
B24: 75110_05K11A (antibody, V domains shown)
VH: B19 VH with A40P, G61A, Y100F, S101Y
VL: B19 VL with A19V, G24R, S31N, A85V, F92H
notes: as for B1
B25: 75110_14H13A (antibody, V domains shown)
VH: B19 VH with S31N, E72K, N83I, Y100D, S101Y
VL: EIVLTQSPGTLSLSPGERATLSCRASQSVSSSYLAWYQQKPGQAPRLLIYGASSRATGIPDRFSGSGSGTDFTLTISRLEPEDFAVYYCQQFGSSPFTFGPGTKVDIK
notes: as for B1
B26: 75110_08H06A (antibody, V domains shown)
VH: B19 VH with S31N, S101D
VL: B19 VL with G24R, V29I, S30T, T32I, Q38R, F92Y
notes: as for B1
B27: 75110_07E04A (antibody, V domains shown)
VH: B19 VH with A24V, N76K, S77F, S101Y
VL: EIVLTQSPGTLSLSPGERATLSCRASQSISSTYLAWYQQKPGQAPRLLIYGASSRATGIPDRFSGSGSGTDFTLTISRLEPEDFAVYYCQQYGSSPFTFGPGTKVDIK
notes: as for B1
B28: 75110_10L22A (antibody, V domains shown)
VH: B19 VH with S84G, G99N, S101F, M105V
VL: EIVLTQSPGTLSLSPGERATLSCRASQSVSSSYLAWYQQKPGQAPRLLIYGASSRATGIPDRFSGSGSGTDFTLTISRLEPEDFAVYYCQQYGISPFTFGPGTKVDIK
notes: as for B1

What follows are binders tested against T1, Recombinant human CD4 (R&D Systems, Cat. 10327-CD) (human, UniProt P01730 26-390, limits assumed) (assay: BLI (Octet Red384), purified antibody on anti-mouse Fc sensors, human CD4 100/50/25 nM, global 1:1 fit;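 also: antibodies loaded at 10 µg/mL, curves fitted across association and dissociation phases, with an unrelated mouse-derived antibody serving as internal reference control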).
T1 construct: Bought protein; also called huCD4

Binder	Kd	Response	koff	kon
B1	16 nM	0.15	0.0012 s⁻¹	75000 M⁻¹ s⁻¹
B2	6 nM	0.07	0.0015 s⁻¹	250000 M⁻¹ s⁻¹
B3	2.2 nM	0.11	3.6e-05 s⁻¹	16000 M⁻¹ s⁻¹
B4	22 nM	0.11	0.00027 s⁻¹	12000 M⁻¹ s⁻¹
B5	9.2 nM	0.16	0.00091 s⁻¹	99000 M⁻¹ s⁻¹
B6	14 nM	0.11	0.00026 s⁻¹	18000 M⁻¹ s⁻¹
B7	2.8 nM	0.25	0.00028 s⁻¹	100000 M⁻¹ s⁻¹
B8	3 nM	0.24	0.00043 s⁻¹	140000 M⁻¹ s⁻¹
B9	14 nM	0.1	0.0022 s⁻¹	160000 M⁻¹ s⁻¹
B10	7.1 nM	0.19	0.0006 s⁻¹	85000 M⁻¹ s⁻¹
B11	15 nM	0.28	0.0016 s⁻¹	110000 M⁻¹ s⁻¹
B12	3.2 nM	0.09	0.0013 s⁻¹	420000 M⁻¹ s⁻¹
B13	13 nM	0.25	0.0022 s⁻¹	170000 M⁻¹ s⁻¹
B14	53 nM	0.09	0.0045 s⁻¹	86000 M⁻¹ s⁻¹
B15	26 nM	0.19	0.0033 s⁻¹	120000 M⁻¹ s⁻¹
B16	9.4 nM	0.16	0.0012 s⁻¹	130000 M⁻¹ s⁻¹
B17	5 nM	0.08	0.0015 s⁻¹	290000 M⁻¹ s⁻¹
B18	48 nM	0.21	0.004 s⁻¹	85000 M⁻¹ s⁻¹
B19	26 nM	0.04	3.6e-05 s⁻¹	1400 M⁻¹ s⁻¹
B20	0.59 nM	0.09	3.2e-05 s⁻¹	55000 M⁻¹ s⁻¹
B21	220 nM	0.05	0.00022 s⁻¹	
B22	1.7 nM	0.11	0.00016 s⁻¹	92000 M⁻¹ s⁻¹
B23	2.4 nM	0.08	0.00035 s⁻¹	140000 M⁻¹ s⁻¹
B24	< 0.001 nM	0.04	< 1e-07 s⁻¹	36000 M⁻¹ s⁻¹
B25	2.1 nM	0.08	0.00011 s⁻¹	54000 M⁻¹ s⁻¹
B26	11 nM	0.04	0.00043 s⁻¹	39000 M⁻¹ s⁻¹
B27	< 0.001 nM	0.07	< 1e-07 s⁻¹	35000 M⁻¹ s⁻¹
B28	12 nM	0.03	0.00045 s⁻¹	37000 M⁻¹ s⁻¹

From US20220112288A1 (published 2022)
